The values below come from paper PMC5382021.

What all share (test): purified protein
In series [1] the test system is O=c1ccn([C@@H]2O[C@H](CO)[C@H]3OP(=O)(O)O[C@H]32)c(=O)[nH]1. To be noted: 2 mM Mn2+, pH 7.5.
The test system of series [2] is Nc1nc2c(ncn2[C@@H]2O[C@H](CO)[C@H]3OP(=O)(O)O[C@H]32)c(=O)[nH]1. Particulars: 2 mM Mn2+, pH 7.5.
The test system of series [3] is [H][C@@]1(O)[C@]2([H])OP(=O)(O)OC[C@@]3([H])O[C@@]([H])(n4cnc5c(N)ncnc54)[C@]([H])(O)[C@]3([H])OP(=O)(O)OC[C@@]2([H])O[C@@]1([H])n1cnc2c(N)ncnc21. To be noted: 50 mM Tris pH 7.5, 5 mM MnCl2, 37 °C.
In series [4] the test system is Nc1nc2c(ncn2[C@@H]2O[C@@H]3COP(=O)(O)O[C@H]4[C@@H](O)[C@H](n5cnc6c(N)ncnc65)O[C@@H]4COP(=O)(O)O[C@H]3[C@H]2O)c(=O)[nH]1. To be noted: 50 mM Tris pH 7.5, 5 mM MnCl2, 37 °C.
The test system of series [5] is Nc1nc2c(ncn2[C@@H]2O[C@@H]3CO[P@](=O)(O)O[C@H]4[C@@H](O)[C@H](n5cnc6c(=O)[nH]c(N)nc65)O[C@@H]4CO[P@](=O)(O)O[C@H]3[C@H]2O)c(=O)[nH]1. To be noted: 50 mM Tris pH 7.5, 5 mM MnCl2, 37 °C.

In general, Km refers to the concentration of substrate that gives half-maximal velocity. Usually kcat stands for the maximal rate divided by the concentration of active sites. A word on the kcat/Km: it is the turnover number divided by the Michaelis constant. On to “rCdnP (CdnP, Gbs1929) (Streptococcus agalactiae 2603V/R)”, for which the Km in series [1] came to 42 ± 10 µM; in series [2] it was 22 ± 4 µM; in series [3], 14 ± 1 µM; in series [4], 4.0 ± 1.6 µM; in series [5] it was 13.2 ± 6 µM. Besides, the kcat in series [1] turned out to be 19.8 s⁻¹; in series [2], 9.4 s⁻¹; in series [3], 17.4 s⁻¹; in series [4] it was 4.5 s⁻¹; in series [5] it was 2.6 s⁻¹. The kcat/Km amounted to 470000 M⁻¹ s⁻¹ in series [1]; 420000 M⁻¹ s⁻¹ in series [2]; 1.2e+06 M⁻¹ s⁻¹ in series [3]; 1.1e+06 M⁻¹ s⁻¹ in series [4]; 190000 M⁻¹ s⁻¹ in series [5].
